Experimental data: patent publication US20170029530A1 (AbbVie / Abbott, published 2017)
Where a chain is given by its changes, count along the chain named. Values joined by “and” are separate entries in the source; they are usually repeats but may differ in a detail not shown here. Equal values may be shown once.

T1: rat DPEP3 ECD with histidine tag (rat, UniProt Q5U2X4 36-459, limits assumed)
T1 construct: also called rDPEP3-His; ratDPEP3-His; not shown: histidine tag
T1 sequence: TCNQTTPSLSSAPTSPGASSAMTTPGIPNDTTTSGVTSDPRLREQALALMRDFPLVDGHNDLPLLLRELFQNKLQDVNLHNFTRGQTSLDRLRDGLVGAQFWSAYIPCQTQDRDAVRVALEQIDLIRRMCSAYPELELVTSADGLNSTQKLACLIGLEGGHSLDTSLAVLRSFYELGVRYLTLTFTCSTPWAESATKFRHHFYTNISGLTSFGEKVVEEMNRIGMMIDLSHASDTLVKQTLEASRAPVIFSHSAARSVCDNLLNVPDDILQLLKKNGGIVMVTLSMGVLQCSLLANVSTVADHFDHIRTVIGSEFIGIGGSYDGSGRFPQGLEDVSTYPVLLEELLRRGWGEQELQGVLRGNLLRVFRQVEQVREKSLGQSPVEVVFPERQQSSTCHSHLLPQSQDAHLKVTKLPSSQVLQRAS

T2: mDPEP3 (limits assumed)
T2 construct: also called mouse DPEP3-His; mouse DPEP3 ECD with histidine tag
T2 single chain: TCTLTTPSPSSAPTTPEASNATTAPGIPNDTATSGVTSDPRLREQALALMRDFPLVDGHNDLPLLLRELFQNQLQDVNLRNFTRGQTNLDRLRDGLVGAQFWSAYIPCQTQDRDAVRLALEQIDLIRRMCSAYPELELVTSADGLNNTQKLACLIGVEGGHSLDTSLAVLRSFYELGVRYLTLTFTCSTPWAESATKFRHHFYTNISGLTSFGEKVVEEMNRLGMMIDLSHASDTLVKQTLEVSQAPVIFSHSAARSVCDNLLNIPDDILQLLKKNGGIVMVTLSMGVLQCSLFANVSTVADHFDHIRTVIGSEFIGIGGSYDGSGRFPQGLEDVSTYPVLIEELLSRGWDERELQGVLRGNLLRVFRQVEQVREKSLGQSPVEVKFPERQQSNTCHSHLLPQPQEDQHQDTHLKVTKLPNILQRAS

T3: cDPEP3 (Macaca fascicularis, UniProt Q4R7M2)
T3 construct: extracellular domain; also called cynomolgus DPEP3-His; cynomolgus DPEP3 ECD with histidine tag
T3 sequence (single chain, looked up): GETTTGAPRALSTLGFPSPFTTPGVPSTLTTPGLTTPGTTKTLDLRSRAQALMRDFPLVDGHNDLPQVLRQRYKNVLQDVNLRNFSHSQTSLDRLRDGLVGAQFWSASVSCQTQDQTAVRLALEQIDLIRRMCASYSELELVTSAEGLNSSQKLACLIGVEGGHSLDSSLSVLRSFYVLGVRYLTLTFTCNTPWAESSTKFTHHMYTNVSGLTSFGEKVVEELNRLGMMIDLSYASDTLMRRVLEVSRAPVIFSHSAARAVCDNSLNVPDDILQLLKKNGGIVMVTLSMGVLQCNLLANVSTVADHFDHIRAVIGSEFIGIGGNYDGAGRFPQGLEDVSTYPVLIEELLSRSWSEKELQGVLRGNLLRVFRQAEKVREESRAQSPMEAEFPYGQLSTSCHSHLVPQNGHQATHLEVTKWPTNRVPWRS

T4: hDPEP3-ECD-His (human, UniProt Q9H4B8 36-463)
T4 construct: also called hDPEP3-His; monomeric hDPEP3-His antigen; not shown: histidine tag
T4 sequence: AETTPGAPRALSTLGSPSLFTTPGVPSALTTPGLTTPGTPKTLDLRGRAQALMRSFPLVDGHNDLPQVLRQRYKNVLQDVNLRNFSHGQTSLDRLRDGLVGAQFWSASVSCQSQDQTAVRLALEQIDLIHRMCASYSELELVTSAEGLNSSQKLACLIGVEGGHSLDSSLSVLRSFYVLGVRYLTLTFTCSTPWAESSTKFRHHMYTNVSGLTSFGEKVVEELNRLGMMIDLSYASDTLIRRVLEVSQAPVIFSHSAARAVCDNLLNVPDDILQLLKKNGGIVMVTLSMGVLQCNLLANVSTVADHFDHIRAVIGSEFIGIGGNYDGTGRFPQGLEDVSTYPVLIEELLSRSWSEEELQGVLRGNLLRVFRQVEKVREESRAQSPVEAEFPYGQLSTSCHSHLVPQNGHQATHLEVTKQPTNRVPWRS

B1: SC34.91 (antibody, mouse IgG1, V domains shown)
VH: QVQLQQSGAELARPGASVKLSCKASGYTFRSYAISWVKQRTGQGLEWIGEIYPGSGDTYYNENFKGKATLTTDKSSSTAYMQLSSLTSEDSAVYFCARVHDNGSWFPYWGQGTLVTVSA
VL: DIVMSQSPSSLAVSVGEKVTMSCKSSQSLLYSTYQKNYLAWFQQKPGQSPKLLIYWASTRESGVPDRFTGSGSGTDFTLTISSVKAEDLAVYYCQQYYRYPLTFGAGTKLELK
B2: SC34.19 (antibody, mouse IgG1, V domains shown)
VH: B1 VH with R30T, S35T, D57N, Y59F, Y60F, N63K, K67R, N102Y
VL: B1 VL with S10A, V19I, S25C, Y31H, T33R, Y34D, F42Y, S82N, S83T, Y97H
B3: SC34.89 (antibody, mouse IgG1, V domains shown)
VH: B1 VH with R30T, G42R, T58I, Y59H, N61S, E62G, N63K, T69S, N102Y
VL: DIVMSQSPSSLGVSVGEKVTLSCKSSQSLFNKRDQKNYLAWYQQKPGQSPKLLIYWASTRESGVPDRFTGSGSGTDFILTIRSVKAEDLAVYYCHQSYRYPLTFGAGTKLELK
B4: SC34.25 (antibody, mouse IgG1, V domains shown)
VH: B1 VH with A9V, L20V, R30T, D57E, N63K, Q82H, F95L, A97G, H100N, N102Y
VL: B1 VL with V15G, T33R, L39V, F42Y
B5: SC34.16 (antibody, mouse IgG1, V domains shown)
VH: B1 VH with A9T, G26E, R30T, S35T, K38R, D57N, N63T, T72S, Y80S, N102Y
VL: B1 VL with T33R, F42Y, A57S, V91D
B6: SC34.58 mouse anti-DPEP3 antibody (antibody, V domains shown)
VH: B1 VH with R30T, A33G, I34V, S35N, S55R, T58V, E62D, N102Y
VL: B1 VL with T33R, Y34N, F42Y, Q95H, Y97H, K113R
notes: Mouse hybridoma antibody
B7: SC34.13 (antibody, mouse IgG2a, V domains shown)
VH: B1 VH with L4V, R30T, D57N, E62G, N63K, H100D, N102Y
VL: B1 VL with M21L, T33R, F42Y, K51R, L53V, A90V, A106S
B8: SC34.24 (antibody, mouse IgG1, V domains shown)
VH: B1 VH with A9P, G26E, R30T, S35T, T41A, N63K, N102Y
VL: B1 VL with S22N, T33R, F42Y
B9: SC34.27 (antibody, mouse IgG1, V domains shown)
VH: B1 VH with A33G, S35N, S55R, T58V, N102Y
VL: B1 VL with T33R, Y34N, F42Y, S82N, Q95H
B10: SC34.86 (antibody, mouse IgG1, V domains shown)
VH: B1 VH with R30T, A33T, S35T, D57N, N63K, N102Y
VL: B1 VL with I2T, M21L, T33R, F42Y, I54L, Y97H
B11: SC34.20 (antibody, mouse IgG1, V domains shown)
VH: B1 VH with A9S, K38R, G54E, D57N, Y59D, E62A, N63Q, D90A, N102Y
VL: B1 VL with A12T
B12: SC34.87 (antibody, mouse IgG2a, V domains shown)
VH: QVQLQQSGAELAKPGASVKMSCKASGYTFTSYWMLWVKQRPGQGLEWIGYIDPRNGYTEYNQKFKDKATLTADKSSSTAYMQLSSLTSEDSAVYYCTRGGNVAMDYWGQGTSVTVSS
VL: DIVMSQSPSSLAVSAGEKVTMSCKSSQSLLNSRTRKNYLAWYQQKPGQSPKLLIYWASTRESGVPGRFTGSGSGTDFTLTISSVQAEDLAVYYCKQSYNLWTFGGGTKLEIK

Molecular target: T1, rat DPEP3 ECD with histidine tag
Assay: ELISA, coated antigen
Method: (§1) The anti-DPEP3 antibodies were screened by ELISA for cross-reactivity with mouse, rat and cynomolgus DPEP3 and for cross reactivity to hDPEP2, the closest DPEP3 family member. ELISA was conducted as follows. Plates were coated with purified mouse, rat or cynomolgus DPEP3-His or hDPEP2-His at 0.3 μg/mL in 0.2 M carbonate-bicarbonate buffer, pH 9.4 overnight at 4° C. The protein solution was removed and the wells were blocked with 1% (w/v) BSA in PBS (PBSA), 100 μL/well for 1 hour at 37° C. Anti-DPEP3 antibody or a mouse isotype control antibody was then added at 1 μg/mL in 50 μL PBSA for 1 hour at room temperature. After washing with water, 50 μL/well HRP-labeled goat anti-mouse IgG antibody diluted 1:10,000 in PBSA was added for 30 min at room temperature. The plates were washed and developed by the addition of 40 μL/well of the TMB substrate solution (Thermo Scientific) at room temperature. An equal volume of 0.2 M H₂SO₄ was added to stop substrate development. The samples were then analyzed by spectrophotometer at OD 450. […] The cross reactivity results for exemplary DPEP3-specific antibodies can be seen in FIG. 4.

Row | Binder | binding result
1 | B1 | no binding (tested: 1 ug/mL)
2 | B2 | no binding (tested: 1 ug/mL)
3 | B3 | no binding (tested: 1 ug/mL)
4 | B4 | no binding (tested: 1 ug/mL)
5 | B5 | no binding (tested: 1 ug/mL)
6 | B6 | no binding (tested: 1 ug/mL)
7 | B7 | no binding (tested: 1 ug/mL)
8 | B8 | no binding (tested: 1 ug/mL)
9 | B9 | no binding (tested: 1 ug/mL)
10 | B10 | no binding (tested: 1 ug/mL)
11 | B11 | no binding (tested: 1 ug/mL)

Molecular target: T5, hDPEP2 ECD with histidine tag (human, UniProt Q9H4A9 33-463)
T5 construct: also called hDPEP2-His; not shown: histidine tag
T5 sequence (Q9H4A9 33-463): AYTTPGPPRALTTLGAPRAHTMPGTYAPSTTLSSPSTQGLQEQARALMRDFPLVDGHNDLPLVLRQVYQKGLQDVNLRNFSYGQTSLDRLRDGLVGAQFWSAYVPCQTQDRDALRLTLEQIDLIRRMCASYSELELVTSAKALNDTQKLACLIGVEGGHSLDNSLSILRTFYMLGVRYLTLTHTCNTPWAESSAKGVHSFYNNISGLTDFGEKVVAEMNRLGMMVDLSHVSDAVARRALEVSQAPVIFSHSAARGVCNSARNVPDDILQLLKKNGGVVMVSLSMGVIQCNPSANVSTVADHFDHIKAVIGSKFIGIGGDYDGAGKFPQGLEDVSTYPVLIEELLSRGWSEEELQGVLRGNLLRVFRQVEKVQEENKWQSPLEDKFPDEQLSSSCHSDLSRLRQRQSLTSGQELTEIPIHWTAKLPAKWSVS
Assay: ELISA, coated antigen
Method: as §1

Row | Binder | binding result
12 | B12 | no binding (tested: 1 ug/mL)
13 | B1 | no binding (tested: 1 ug/mL)
14 | B2 | no binding (tested: 1 ug/mL)
15 | B3 | no binding (tested: 1 ug/mL)
16 | B4 | no binding (tested: 1 ug/mL)
17 | B5 | no binding (tested: 1 ug/mL)
18 | B6 | no binding (tested: 1 ug/mL)
19 | B7 | no binding (tested: 1 ug/mL)
20 | B8 | no binding (tested: 1 ug/mL)
21 | B9 | no binding (tested: 1 ug/mL)
22 | B10 | no binding (tested: 1 ug/mL)
23 | B11 | no binding (tested: 1 ug/mL)

Molecular target: T2, mDPEP3
Assay: ELISA, coated antigen
Method: as §1

Row | Binder | binding result
24 | B12 | no binding (tested: 1 ug/mL)
25 | B1 | no binding (tested: 1 ug/mL)
26 | B2 | no binding (tested: 1 ug/mL)
27 | B3 | no binding (tested: 1 ug/mL)
28 | B4 | no binding (tested: 1 ug/mL)
29 | B5 | no binding (tested: 1 ug/mL)
30 | B6 | no binding (tested: 1 ug/mL)
31 | B7 | no binding (tested: 1 ug/mL)
32 | B8 | no binding (tested: 1 ug/mL)
33 | B9 | no binding (tested: 1 ug/mL)
34 | B10 | no binding (tested: 1 ug/mL)
35 | B11 | no binding (tested: 1 ug/mL)

Molecular target: T3, cDPEP3
Assay: ELISA, coated antigen
Method: as §1

Row | Binder | binding result
36 | B12 | no binding (tested: 1 ug/mL)

Molecular target: T4, hDPEP3-ECD-His
Assay: BLI ForteBio RED, 200 nM hDPEP3-His, estimated grade
Method: The affinity of the antibodies for hDPEP3-His was qualitatively determined from kinetics curves generated with a ForteBio RED as follows. Anti-DPEP3 antibodies were immobilized onto anti-mouse Fc capture biosensors with a contact time of 3 mins. and a flow rate of 1000 rpm. The captured antibody loading from baseline was constant at 0.3-1 units. Following antibody capture and 30 second baseline, the biosensors were dipped into a 200 nM solution of hDPEP3-His for a 4 min. association phase followed by a 3 min. dissociation phase at a shaking rate of 1000 rpm. The biosensors were regenerated by dipping into 10 mM glycine, pH 1.7 following each cycle. The data was processed by subtracting a control mouse IgG surface response from the specific antibody response and data was truncated to the association and dissociation phase. The association and dissociation curves were used to qualitatively estimate the affinities of selected antibodies. […] A designation of “ND” means that the estimated KD was not determined.

Row | Binder | Kd
37 | B12 | ≥ 5 nM and ≤ 10 nM
38 | B1 | < 5 nM
39 | B2 | ≥ 5 nM and ≤ 10 nM
40 | B3 | < 5 nM
41 | B4 | < 5 nM
42 | B5 | < 5 nM
43 | B6 | < 5 nM
44 | B7 | ≥ 5 nM and ≤ 10 nM
45 | B8 | < 5 nM
46 | B9 | < 5 nM
47 | B10 | < 5 nM
48 | B11 | ≥ 5 nM and ≤ 10 nM
